Data taken from patent US20210348152A1 (TECHNION RESEARCH AND DEVELOPMENT FOUNDATION, published 2021).

B1: p105-HA (other, UniProt P19838 1-968, looked up)
chain: MAEDDPYLGRPEQMFHLDPSLTHTIFNPEVFQPQMALPTDGPYLQILEQPKQRGFRFRYVCEGPSHGGLPGASSEKNKKSYPQVKICNYVGPAKVIVQLVTNGKNIHLHAHSLVGKHCEDGICTVTAGPKDMVVGFANLGILHVTKKKVFETLEARMTEACIRGYNPGLLVHPDLAYLQAEGGGDRQLGDREKELIRQAALQQTKEMDLSVVRLMFTAFLPDSTGSFTRRLEPVVSDAIYDSKAPNASNLKIVRMDRTAGCVTGGEEIYLLCDKVQKDDIQIRFYEEEENGGVWEGFGDFSPTDVHRQFAIVFKTPKYKDINITKPASVFVQLRRKSDLETSEPKPFLYYPEIKDKEEVQRKRQKLMPNFSDSFGGGSGAGAGGGGMFGSGGGGGGTGSTGPGYSFPHYGFPTYGGITFHPGTTKSNAGMKHGTMDTESKKDPEGCDKSDDKNTVNLFGKVIETTEQDQEPSEATVGNGEVTLTYATGTKEESAGVQDNLFLEKAMQLAKRHANALFDYAVTGDVKMLLAVQRHLTAVQDENGDSVLHLAIIHLHSQLVRDLLEVTSGLISDDIINMRNDLYQTPLHLAVITKQEDVVEDLLRAGADLSLLDRLGNSVLHLAAKEGHDKVLSILLKHKKAALLLDHPNGDGLNAIHLAMMSNSLPCLLLLVAAGADVNAQEQKSGRTALHLAVEHDNISLAGCLLLEGDAHVDSTTYDGTTPLHIAAGRGSTRLAALLKAAGADPLVENFEPLYDLDDSWENAGEDEGVVPGTTPLDMATSWQVFDILNGKPYEPEFTSDDLLAQGDMKQLAEDVKLQLYKLLEIPDPDKNWATLAQKLGLGILNNAFRLSPAPSKTLMDNYEVSGGTVRELVEALRQMGYTEAIEVIQAASSPVKTTSQAHSLPLSPASTRQQIDELRDSDSVCDSGVETSFRKLSFTESLTSGASLLTLNKMPHDYGQEGPLEGKI
notes: Co-expressed with FLAG-tagged KPC1 species in HEK293T cells and detected with anti-NF-κB1 after anti-FLAG immunoprecipitation; also called NF-κB1 p105; NF-kB1 p105; not shown: HA tag

What was measured:
[1] = target: T1, KPC1Δ967-1043 (FLAG-tagged) (Homo sapiens (Human), UniProt Q5XPI4 1-1314); test: co-immunoprecipitation (anti-FLAG) from HEK293T cells, western blot
T1 construct: also called KPC1 species vii
T1 sequence: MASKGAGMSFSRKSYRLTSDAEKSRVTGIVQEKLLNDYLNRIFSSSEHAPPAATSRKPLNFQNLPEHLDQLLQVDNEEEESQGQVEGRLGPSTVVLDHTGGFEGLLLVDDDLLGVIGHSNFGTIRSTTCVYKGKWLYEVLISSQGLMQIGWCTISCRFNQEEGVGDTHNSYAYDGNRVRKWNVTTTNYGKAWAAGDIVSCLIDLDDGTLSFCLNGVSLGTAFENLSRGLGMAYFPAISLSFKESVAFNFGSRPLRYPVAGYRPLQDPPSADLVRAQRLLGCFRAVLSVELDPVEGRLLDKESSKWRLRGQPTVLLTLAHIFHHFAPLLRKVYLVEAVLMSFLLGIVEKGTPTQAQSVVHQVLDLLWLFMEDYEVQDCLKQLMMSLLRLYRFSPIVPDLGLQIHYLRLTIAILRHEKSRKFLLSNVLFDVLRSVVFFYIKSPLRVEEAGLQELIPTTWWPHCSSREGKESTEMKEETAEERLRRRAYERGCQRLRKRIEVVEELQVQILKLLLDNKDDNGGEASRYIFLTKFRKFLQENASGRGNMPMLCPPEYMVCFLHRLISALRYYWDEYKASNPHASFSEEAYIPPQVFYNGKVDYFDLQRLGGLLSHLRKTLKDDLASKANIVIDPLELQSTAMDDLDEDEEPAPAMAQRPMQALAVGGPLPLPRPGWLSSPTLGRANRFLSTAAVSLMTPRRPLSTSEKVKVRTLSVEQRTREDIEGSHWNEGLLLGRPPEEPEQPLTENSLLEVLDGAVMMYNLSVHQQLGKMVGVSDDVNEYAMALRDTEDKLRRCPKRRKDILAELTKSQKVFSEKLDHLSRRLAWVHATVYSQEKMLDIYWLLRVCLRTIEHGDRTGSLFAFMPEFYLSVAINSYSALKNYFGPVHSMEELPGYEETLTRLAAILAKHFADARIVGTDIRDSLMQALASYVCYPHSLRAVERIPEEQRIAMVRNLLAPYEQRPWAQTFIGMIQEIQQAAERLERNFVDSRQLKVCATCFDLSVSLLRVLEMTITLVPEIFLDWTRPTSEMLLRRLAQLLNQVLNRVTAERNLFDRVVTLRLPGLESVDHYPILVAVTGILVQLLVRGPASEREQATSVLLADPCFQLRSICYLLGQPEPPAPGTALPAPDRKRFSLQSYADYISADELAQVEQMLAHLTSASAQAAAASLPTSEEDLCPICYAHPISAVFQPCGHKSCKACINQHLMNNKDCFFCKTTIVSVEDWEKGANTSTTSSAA
Procedure: (§1) HEK293T cells were transiently transfected with the various KPC1 species along with p105-HA using the j etPEI reagent. 48 hours after transfection, the cells were harvested and lysed with RIPA buffer [150 mM NaCl, 0.5% sodium deoxycholate, 50 mM Tris-HCl (pH 8.0), 0.1% SDS, and 1% NP-40, supplemented with freshly added protease inhibitors mixture]. KPC1 species proteins were immunoprecipitated with immobilized anti-FLAG, with subsequent washing of the beads five times with RIPA buffer. The immunoprecipitated proteins were resolved by SDS-PAGE (10%, FIGS. 1A, 1B, 2A and 2B, with a gel gradient, of 4-20%; FIGS. 3A and 3B), and blotted onto nitrocellulose (FIGS. 1A, 1B, 2A and 2B) or PVDF (FIGS. 3A and 3B) membranes. p105 and KPC1 species were visualized using anti-NF-kB1 or anti-FLAG antibodies, respectively.
(§2) Identification of the region of KPC1 that is responsible for the interaction with p105. In order to identify the region of KPC1 that is responsible for the interaction with p105, several truncated segments of the DNA sequence of the KPC1 protein were cloned. The truncated segments were inserted into the pCAGGS expression vector to analyze their interaction with p105 by co-immunoprecipitation (Co-IP) from cells. HEK 293T cells were transfected with cDNAs coding for p105-HA, along with different fragments of KPC1 (FIG. 1A). Species of KPC1 were immunoprecipitated using an immobilized anti-Flag antibody. The precipitated proteins were resolved via SDS-PAGE and detected by Western blot using anti NF-κB1 and anti-FLAG antibodies.

p105-HA = target: B1; test: as above
Procedure: as §1, §2

Binder | binding result [1] | binding result (p105-HA)
B1 | no binding | 
KPC1Δ1-1042 (FLAG-tagged) (enzyme, also called KPC1 species v) EFIGMIQEIQQAAERLERNFVDSRQLKVCATCFDLSVSLLRVLEMTITLVPEIFLDWTRPTSEMLLRRLAQLLNQVLNRVTAERNLFDRVVTLRLPGLESVDHYPILVAVTGILVQLLVRGPASEREQATSVLLADPCFQLRSICYLLGQPEPPAPGTALPAPDRKRFSLQSYADYISADELAQVEQMLAHLTSASAQAAAASLPTSEEDLCPICYAHPISAVFQPCGHKSCKACINQHLMNNKDCFFCKTTIVSVEDWEKGANTSTTSSAA |  | no binding
LVRLW-KPC1 Δ 1-1253 (enzyme, also called KPC1 species xiii) LVRLWCPICYAHPISAVFQPCGHKSCKACINQHLMNNKDCFFCKTTIVSVEDWEKGANTSTTSSAA |  | no binding
WILVR-KPC1 Δ 1-1253 (enzyme, also called KPC1 species xviii) WILVRCPICYAHPISAVFQPCGHKSCKACINQHLMNNKDCFFCKTTIVSVEDWEKGANTSTTSSAA |  | no binding
ILVRLW-KPC1 Δ 1-1253 (enzyme, also called KPC1 species xii) ILVRLWCPICYAHPISAVFQPCGHKSCKACINQHLMNNKDCFFCKTTIVSVEDWEKGANTSTTSSAA |  | no binding
WILVRL-KPC1 Δ 1-1253 (enzyme, also called KPC1 species xvii) WILVRLCPICYAHPISAVFQPCGHKSCKACINQHLMNNKDCFFCKTTIVSVEDWEKGANTSTTSSAA |  | no binding
KPC1Δ1-1017 (FLAG-tagged) (enzyme, Lacks amino acids 1-1017; also called KPC1 species x) LLQQGPDVAPSFLNSVLNQLNWAFSEFIGMIQEIQQAAERLERNFVDSRQLKVCATCFDLSVSLLRVLEMTITLVPEIFLDWTRPTSEMLLRRLAQLLNQVLNRVTAERNLFDRVVTLRLPGLESVDHYPILVAVTGILVQLLVRGPASEREQATSVLLADPCFQLRSICYLLGQPEPPAPGTALPAPDRKRFSLQSYADYISADELAQVEQMLAHLTSASAQAAAASLPTSEEDLCPICYAHPISAVFQPCGHKSCKACINQHLMNNKDCFFCKTTIVSVEDWEKGANTSTTSSAA |  | no binding
KPC1 Δ 1-1253 (enzyme, also called KPC1 species xvi) CPICYAHPISAVFQPCGHKSCKACINQHLMNNKDCFFCKTTIVSVEDWEKGANTSTTSSAA |  | no binding
KPC1Δ1-973 (FLAG-tagged) (enzyme, also called KPC1 species ix) WRGCGFGYRYTRLPHLLKTKLEDANLPSLQKPCPSTLLQQHMADLLQQGPDVAPSFLNSVLNQLNWAFSEFIGMIQEIQQAAERLERNFVDSRQLKVCATCFDLSVSLLRVLEMTITLVPEIFLDWTRPTSEMLLRRLAQLLNQVLNRVTAERNLFDRVVTLRLPGLESVDHYPILVAVTGILVQLLVRGPASEREQATSVLLADPCFQLRSICYLLGQPEPPAPGTALPAPDRKRFSLQSYADYISADELAQVEQMLAHLTSASAQAAAASLPTSEEDLCPICYAHPISAVFQPCGHKSCKACINQHLMNNKDCFFCKTTIVSVEDWEKGANTSTTSSAA |  | no binding
RLW-KPC1 Δ 1-1253 (enzyme, also called KPC1 species xv) RLWCPICYAHPISAVFQPCGHKSCKACINQHLMNNKDCFFCKTTIVSVEDWEKGANTSTTSSAA |  | no binding
WIL-KPC1 Δ 1-1253 (enzyme, also called KPC1 species xx) WILCPICYAHPISAVFQPCGHKSCKACINQHLMNNKDCFFCKTTIVSVEDWEKGANTSTTSSAA |  | no binding
VRLW-KPC1 Δ 1-1253 (enzyme, also called KPC1 species xiv) VRLWCPICYAHPISAVFQPCGHKSCKACINQHLMNNKDCFFCKTTIVSVEDWEKGANTSTTSSAA |  | no binding
WILV-KPC1 Δ 1-1253 (enzyme, also called KPC1 species xix) WILVCPICYAHPISAVFQPCGHKSCKACINQHLMNNKDCFFCKTTIVSVEDWEKGANTSTTSSAA |  | no binding
